Source: patent EP4792886A2, “CNP PRODRUGS” (Ascendis Pharma Growth Disorders A/S, priority 2015, dated 2016)
Bridges are numbered along the chain shown (N, C = ends). Where no end group is shown, it is not given here. The star is where a group is joined. Hexanoyl(6-maleimido) = O=C1C=CC(=O)N1CCCCCC(=O)*

Assays:
recombinant human NEP = recombinant human NEP (Homo sapiens, UniProt P08473); settings: pH 7.4
Description: Samples were taken at different time intervals. […] The resulting reaction products were assigned using HPLC-MS.

wild-type FVB male mice = test: Growth study in FVB mice after 5 weeks treatment, daily subcutaneous bolus injection or continuous subcutaneous infusion; assay type: in vivo; settings: 50 nmol/kg/d, d 35
Description: This study was performed in order to test the effect of daily subcutaneous bolus injection vs. continuous subcutaneous infusion of CNP-38 on animal growth. 21- to 22-days-old wild-type FVB male mice (n = 9/group) were given 50 nmol/kg/d CNP-38 or vehicle (30 mM acetate pH 4 containing 5 % sucrose and 1 % benzylic alcohol) either by daily subcutaneous bolus injection or by continuous subcutaneous infusion in the scapular region over 35 days. Continuous infusion was applied by Alzet osmotic pumps model 1002 for week 1-2, followed by model 1004 for week 3-5. CNP-38 concentrations in the pumps were adjusted for the mean animal weight at study day 7 (pump model 1002) or study day 25 (pump model 1004). Growth was determined at d 35 by total body length measurement and X-ray measurements of the right femur and tibia.

[1] = biological target: T1, natriuretic-peptide receptor B (NPR-B) expressed endogenously on NIH-3T3 cells (Murine Embryo Fibroblast cell … (murine, UniProt Q6VVW5 17-1047)); test: cell-based or functional assay
T1 sequence (looked up): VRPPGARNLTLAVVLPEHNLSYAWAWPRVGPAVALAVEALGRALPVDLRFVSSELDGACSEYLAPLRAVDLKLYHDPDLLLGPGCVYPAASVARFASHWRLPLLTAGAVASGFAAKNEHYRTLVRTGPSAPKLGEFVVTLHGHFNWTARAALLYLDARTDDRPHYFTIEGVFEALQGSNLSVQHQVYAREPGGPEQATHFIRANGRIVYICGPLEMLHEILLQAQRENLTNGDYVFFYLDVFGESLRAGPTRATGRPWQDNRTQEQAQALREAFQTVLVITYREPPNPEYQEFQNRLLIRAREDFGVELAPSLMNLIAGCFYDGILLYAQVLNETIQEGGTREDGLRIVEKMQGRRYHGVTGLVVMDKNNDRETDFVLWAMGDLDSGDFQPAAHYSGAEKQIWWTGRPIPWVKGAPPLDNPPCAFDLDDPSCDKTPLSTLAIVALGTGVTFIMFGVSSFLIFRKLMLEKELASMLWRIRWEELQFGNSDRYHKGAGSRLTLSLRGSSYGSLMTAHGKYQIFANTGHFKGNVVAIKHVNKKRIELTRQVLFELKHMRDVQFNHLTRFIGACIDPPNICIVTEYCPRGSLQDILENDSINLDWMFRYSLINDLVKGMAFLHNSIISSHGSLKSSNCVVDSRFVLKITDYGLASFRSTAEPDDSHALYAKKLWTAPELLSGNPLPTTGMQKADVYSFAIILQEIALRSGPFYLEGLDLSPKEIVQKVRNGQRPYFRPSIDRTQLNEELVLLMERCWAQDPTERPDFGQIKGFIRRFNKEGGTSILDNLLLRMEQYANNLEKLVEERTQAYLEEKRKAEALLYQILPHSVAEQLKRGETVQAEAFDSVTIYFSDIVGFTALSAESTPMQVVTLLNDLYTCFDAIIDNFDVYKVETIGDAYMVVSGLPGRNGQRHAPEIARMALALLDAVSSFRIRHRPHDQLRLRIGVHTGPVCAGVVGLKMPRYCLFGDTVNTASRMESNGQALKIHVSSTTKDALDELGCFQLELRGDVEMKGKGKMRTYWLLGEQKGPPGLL

Sequence of recombinant human NEP (P08473 whole entry): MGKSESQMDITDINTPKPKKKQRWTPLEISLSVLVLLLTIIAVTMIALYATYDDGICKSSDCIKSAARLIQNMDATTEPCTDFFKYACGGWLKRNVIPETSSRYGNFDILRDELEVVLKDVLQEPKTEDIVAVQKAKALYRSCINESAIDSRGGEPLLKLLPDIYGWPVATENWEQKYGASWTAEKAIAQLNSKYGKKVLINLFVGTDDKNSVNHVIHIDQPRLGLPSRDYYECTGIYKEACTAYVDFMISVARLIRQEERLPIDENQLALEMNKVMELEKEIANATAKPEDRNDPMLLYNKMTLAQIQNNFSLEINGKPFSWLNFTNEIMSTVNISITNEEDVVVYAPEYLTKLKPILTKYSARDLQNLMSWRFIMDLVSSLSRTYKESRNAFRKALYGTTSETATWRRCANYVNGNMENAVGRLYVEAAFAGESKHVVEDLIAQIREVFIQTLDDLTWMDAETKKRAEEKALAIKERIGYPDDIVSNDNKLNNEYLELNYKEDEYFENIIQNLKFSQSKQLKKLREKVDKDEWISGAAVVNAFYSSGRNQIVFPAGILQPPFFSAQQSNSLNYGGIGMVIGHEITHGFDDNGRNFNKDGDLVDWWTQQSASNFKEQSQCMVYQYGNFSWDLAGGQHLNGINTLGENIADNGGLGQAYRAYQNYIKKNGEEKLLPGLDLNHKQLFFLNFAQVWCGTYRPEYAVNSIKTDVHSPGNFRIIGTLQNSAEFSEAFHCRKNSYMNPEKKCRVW

**Q.** “CNP-38: CNP-38 SEQ ID No:24, LQEHPNARKYKGANKKGLSKGCFGLKLDRIGSMSGLGC, obtained from CASLO ApS (disulfide 22-38)” was tested. Which “half life norm.” value (recombinant human NEP) did it give?
**A.** 12.10 h

**Q.** What about the “total body lenght compared to vehicle treated animals” value (wild-type FVB male mice; continuous subcutaneous infusion) of the same molecule?
**A.** 121.7%

**Q.** And the “total body lenght compared to vehicle treated animals” value (wild-type FVB male mice; daily subcutaneous bolus injection)?
**A.** 110.2%

B1: permanent N-terminal CNP-38 PEG 5kDa conjugate 15e (peptide)
peptide: {PEG 5 kDa-Hexanoyl(6-maleimido)}-LQEHPNARKYKGANKKGLSKGCFGLKLDRIGSMSGLGC
modifications: disulfide 22-38
**Q.** B1 was tested. Which “Residual Activity [%] (cGMP TR-FRET in NIH-3T3 cells, by EC50 against non-PEGylated CNP-38)” value [1] did it give?
**A.** 14%

B2: permanent Lys26 CNP-38 PEG 5 kDa conjugate 19e (peptide)
peptide: LQEHPNARKYKGANKKGLSKGCFGLKLDRIGSMSGLGC
modifications: 5 kDa PEG stably attached at the side chain of Lys26 through a maleimido hexanoyl group; disulfide bridge between Cys22 and Cys38
**Q.** With B2 as the molecule, how does the “Residual Activity [%] (cGMP TR-FRET in NIH-3T3 cells, by EC50 against non-PEGylated CNP-38)” value [1] read?
**A.** < 1%

B3: permanent Lys26 CNP-38 PEG4x10 kDa conjugate 12g (peptide)
peptide: B2 peptide
modifications: disulfide 22-38; not fully specified (residue 26)
**Q.** B3 was tested. Which “Residual Activity [%] (cGMP TR-FRET in NIH-3T3 cells, by EC50 against non-PEGylated CNP-38)” value [1] did it give?
**A.** < 1%
